What all share (test): SPR
Background: In SPR one partner is held on a chip, and binding of the other changes the refractive index at the surface.

Test [1] deals with human FGFR4-Fc chimeric protein (UniProt P22455 22-369).
For test [2], the target named is T1, mouse FGFR4-Fc chimeric protein (mouse, UniProt Q03142 17-366).
T1 chain: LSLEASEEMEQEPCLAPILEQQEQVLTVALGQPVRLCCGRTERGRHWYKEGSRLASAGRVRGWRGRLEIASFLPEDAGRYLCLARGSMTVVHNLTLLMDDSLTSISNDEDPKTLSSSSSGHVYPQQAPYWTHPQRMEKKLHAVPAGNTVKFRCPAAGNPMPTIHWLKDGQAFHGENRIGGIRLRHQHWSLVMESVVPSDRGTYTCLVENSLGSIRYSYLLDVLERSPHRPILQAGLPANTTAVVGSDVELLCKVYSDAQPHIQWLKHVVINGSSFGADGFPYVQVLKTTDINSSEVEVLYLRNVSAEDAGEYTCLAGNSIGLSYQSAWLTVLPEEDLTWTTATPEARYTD

In another test the target is Cynomolgus FGFR4 (cynomolgus monkey).

human FGFR4-Fc chimeric protein, sequence (P22455 22-369, change not shown): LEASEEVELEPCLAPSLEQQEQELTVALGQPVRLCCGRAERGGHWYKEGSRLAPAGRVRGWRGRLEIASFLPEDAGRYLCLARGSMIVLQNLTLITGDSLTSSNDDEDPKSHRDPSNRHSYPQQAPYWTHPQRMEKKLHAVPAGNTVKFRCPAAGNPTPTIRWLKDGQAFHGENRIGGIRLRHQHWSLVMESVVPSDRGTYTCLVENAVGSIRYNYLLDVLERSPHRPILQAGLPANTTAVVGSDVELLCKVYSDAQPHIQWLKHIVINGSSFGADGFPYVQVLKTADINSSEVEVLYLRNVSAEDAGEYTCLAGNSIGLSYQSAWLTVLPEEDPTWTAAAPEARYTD

B1: chimeric LD1 (chLD1) (antibody, V domains shown)
VH: EVQLQQPGAVLVRPGTSVKLSCKASGYTFTNHWMNWVKQRPGQGLEWIGMIHPSDSETTLDQKFKDKATLTVDKSSSTAYMQLNRPTSEDSAVYYCTRGDISLFDYWGQGTTVTVSS
VL: DIQMTQTTSSLSASLGDRVTITCRTSQDISNFLNWYQQKPDGTFKILISYTSRLHSGVPSRFSGSGSGTDYSLTISTLEQEDFATYFCQQGNALPYTFGGGTKLEIE
By Kd is commonly meant the equilibrium constant for the complex coming apart. As to B1, the Kd in test [1] and in test [2] was 0.7 nM throughout.

B2: LD1 (antibody, V domains shown)
VH: EVQLQQPGAVLVRPGTSVKLSCKASGYTFTNHWMNWVKQRPGQGLEWIGMIHPSDSETTLDQKFKDKATLTVDKSSSTAYMQLNRPTSEDSAVYYCTRGDISLFDYWGQGTTVTVSS
VL: DIQMTQTTSSLSASLGDRVTITCRTSQDISNFLNWYQQKPDGTFKILISYTSRLHSGVPSRFSGSGSGTDYSLTISTLEQEDFATYFCQQGNALPYTFGGGTKLEIE
For the molecule B2, the Kd with Cynomolgus FGFR4 amounted to 0.8 nM.

For the origin of these results see patent US20160237157A1 (published 2016).
